A protein production outcome set (Wang et al. 2014)

Assay: label from the status in PepcDB records
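Note: failed if final PepcDB status was selected cloned or expressed and not failed if soluble or beyond.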

Row | Sequence | protein production
1 | MRGARKSMGRVSYLRLPHLSGDQLCFVAEDDLWLASLDGPGRAWRLTVDRTKAGPPRFSPDGRHIAYTSWRTLVPEVHLVPVDGGPGRQLTHWGGLDTRVCGWSPPDPDGTTAVLAVASHGEPFSHLTWAYKVTPDGDPGRKLPWGPVTDIQAADLDGERRTLLLTGTPPHEPAAWKRYRGGATGRLWLHGERLLPDLGGHLSAPMFVGGRIAFLSDHEGVGNLYSCAQDGTGLRRHTDHDAFYARNAASDGTRVVYQCAGDLWIVDDLAPGSAPRRLDVRLSGPRAGRRTHQVPAAQHVGGISVDETGRASAVVVRGSLYWLTHRDGPARTIADTPGVRVRLPEMLGESGRIAYVTDAEGEDAVEISYLPRATGGRAARRLASGRLGRVLELVSDPAGDRLAVASHDGRLLILDVAEPDTEVTLALEAVDAGYPPDAGDEDAAGTAARADSAPDAPAEDTDARDIAAGTGTGDIADADAAAGGTVTPGSPGTPATAGGQVTELIRSVNGPVRDLAFSPDGTWLTWSHPGIGRTLRQIKMARIDGPEGTLVVDVTNGRFEDENPVFTRDGRYLAFLSWRGFDPVYDVHTGDLSFPLGCRPYLVPLSSATPSPFALNPEGRPAAGGLDPLEDEPGEGGAVMVEVEGLESRVTPFPVTASKYSALEPVAGGGLVWLRWPISGALGETFANPADPSERPTLEHFNLAKAKKSELVDHLDWFRVSGDGSRLVVLDEGELRAVPASEVGDGDSTTWIDLRRILHEVDPAAEWRQAYDEAGRLIRAYFWDPGMCGIDWDAVLDQYRPLLERVASPDEFADLLREVLGELGTSHAYVVAARRNEGPAHYQRWQGLLGANLACRDGRWLVRRILPGDSSDSKARSPLAGTGIRDGAVLTHVDGRPVDPVLGPSPLLAGAGGTTVELTFAPAEGCQGPSRRVAVVPLVDERPLRYQDWVAKRREVVRELSGGRCGYLHIPDMGGSGWAQFNRDLRMEVSRPALIVDVRGNAGGHISELVIEKLTRTILGWDLTRDAQPVSYTSNAPRGPVVAVADEATSSDGDMITAAFKLLRLGPVVGQRTWGGVVGMTGRHRLGDGSVITVPMNAAWFDAYGWSVENYGVAPDVEALRTPLDWAEGRYPVLDEAVRLALELLETNPPATPPGYEAVPDRSRPPLPPRE | failed
2 | MAGDQELELRFDVPLYTLAEASRYLVVPRATLATWADGYERRPANAPAVQGQPIITALPHPTGSHARLPFVGIAEAYVLNAFRRAGVPMQRIRPSLDWLIKNVGPHALASQDLCTDGAEVLWRFAERSGEGSPDDLVVRGLIVPRSGQYVFKEIVEHYLQQISFADDNLASMIRLPQYGDANVVLDPRRGYGQPVFDGSGVRVADVLGPLRAGATFQAVADDYGVTPDQLRDALDAIAA | not failed
3 | MKVQITNSRTEEILKVQANNENDEVSKATPGEVEESLRLIGDLKFFLATAPVNWQENQIIRRYYLNSGQGFVSCVFWNNLYYITGTDIVKCCLYRMQKFGREVVQKKKFEEGIFSDLRNLKCGIDATLEQPKSEFLSFLFRNMCLKTQKKQKVFFWFSVAHDKLFADALERDLKRESLNQPSTTKPVNEPALSFSYDSSSDKPLYDQLLQHLDSRRPSSTTKSDNSPPKLESENFKDNELVTVTNQPLLGVGLMDDDAPESPSQINDFIPQKLIIEPNTLELNGLTEETPHDLPKNTAKGRDEEDFPLDYFPVSVEYPTEENAFDPFPPQAFTPAAPSMPISYDNVNERDSMPVNSLLNRYPYQLSVAPTFPVPPSSSRQHFMTNRDFYSSNNNKEKLVSPSDPTSYMKYDEPVMDFDESRPNENCTNAKSHNSGQQTKQHQLYSNNFQQSYPNGMVPGYYPKMPYNPMGGDPLLDQAFYGADDFFFPPEGCDNNMLYPQTATSWNVLPPQAMQPAPTYVGRPYTPNYRSTPGSAMFPYMQSSNSMQWNTAVSPYSSRAPSTTAKNYPPSTFYSQNINQYPRRRTVGMKSSQGNVPTGNKQSVGKSAKISKPLHIKTSAYQKQYKINLETKARPSAGDEDSAHPDKNKEISMPTPDSNTLVVQSEEGGAHSLEVDTNRRSDKNLPDAT | failed
4 | MKGKVVSYLAAKKYGFIQGDDGESYFLHFSELLDKKDEGKLVKGSMVHFDPTPTPKGLAAKAISLPLEHHHHHH | not failed
5 | MDETPIFKIKKLTIAENDRSEYIRYAEKNMHDSIPAEEGTLLIGSGHDDAHGEDNYEIEVFRNKGAEDLHIAGSHADDFVETVNKIATKQKVIDLHPEVITTKAQRALNSYADNFVMRLIKVEVKDADAEKFSHAVKKEMTTSMASEPGMEIMMSGTNIDNPNEWYFIEVYANDEAYDIHVKTPHYKEYIEETDGMVKSRDVKTLVRDTLATQGAIVLD | not failed
6 | MKKIEIFDPAMCCPTGLCGTNINPELMRIAVVIESLKKQGIIVTRHNLRDEPQVYVSNKTVNDFLQKHGADALPITLVDGEIAVSQTYPTTKQMSEWTGVNLD | not failed
7 | MINIRSFRDLLRLFFIFKREVKITVLVTFIIIVLGAFLLPNRFESTALLLVKPGRDTSTLPIEIADRQAVVIPSAQRDPIIDEERILGGEPIARKVAEKYLDDLSRQPQPSGALATLKNAVKGAVEGIVDLLRGALQLVGLVEKQTPVERLTERMLKSFSVTHAAGSSVMEVSFTWNDPKVAQTVVKSWIEQYQQERAQTLGRKSLYAFYETESGATNQRILGYKKQIADYLNQLGAVSIEERLNDISRNLNNLKGEHLNTTRAVASTRSGLETIQKQLNSMKKEISIGRQMSLNPDRQDLQQRINAKQIERQEMLRTFKEGAPPVRAMDAAIANLQALLKSESGTVQRSENLAPNPVYTRLQNSFADQQASLSRLQTQAAQQETQLLKLEQERRQALAVEPELARLQRELSAAEKSFALYSDSTEKARIDRELDQSQISNIAVIEEATFKPSRVFPKSLSMLLAAIPLSLAVGLLALYFFYLLDQRIHDGDQIEERFGVKVWTSLQDLDSHLPQRNSAFTASLYRLYGILPLKQVALQGLVIGLTSARRGEGVSFVTAHLRDLLQERGHVVRVNGAPNAVPGEIVLLEASGFFSNQEAFVSLREADLIALIVEAETTTVPVLQNALSILTTAFKRVDGIIINRRRFGIPENVLNFLARIRSPH | failed
8 | MLKKLIEKVKSLTSVIKIVFFISVLVLIIVEMIHLKRTISVEQLKSVFGQLSPMNLFLIILVGVIAVLPTTGYDFVLNGLLRTDKSKRYILQTSWCINTFNNLSGFGGLIDIGLRMAFYGKKGQEKSDLREVTRFLPYLISGLSFISVIALIMSHIFHAKASVDYYYLVLIGASMYFPVIYWISGHKGSHYFGDMPSSTRIKLGVVSFFEWGCAAAAFIIIGYLMGIHLPVYKILPLFCIGCAVGIVSLIPGGLGSFELVLFTGFAAEGLPKETVVAWLLLYRLAYYIIPFFAGIYFFIHYLGSQINQRYENVPKELVSTVLQTMVSHLMRILGAFLIFSTAFFENITYIMWLQKLGLDPLQEQMLWQFPGLLLGVCFILLARTIDQKVKNAFPIAIIWITLTLFYLNLGHISWRLSFWFILLLLGLLVIKPTLYKKQFIYSWEERIKDGIIIVSLMGVLFYIAGLLFPIRAHITGGSIERLHYIIAWEPIALATLILTLVYLCLVKILQGKSCQIGDVFNVDRYKKLLQAYGGSSDSGLAFLNDKRLYWYQKNGEDCVAFQFVIVNNKCLIMGEPAGDDTYIREAIESFIDDADKLDYDLVFYSIGQKLTLLLHEYGFDFMKVGEDALVNLETFTLKGNKYKPFRNALNRVEKDGFYFEVVQSPHSQELLNSLEEISNTWLEGRPEKGFSLGYFNKDYFQQAPIALVKNAEHEVVAFANIMPNYEKSIISIDLMRHDKQKIPNGVMDFLFLSLFSYYQEKGYHYFDLGMAPLSGVGRVETSFAKERMAYLVYHFGSHFYSFNGLHKYKKKFTPLWSERYISCSRSSWLICAICALLMEDSKIKIVK | failed
9 | MTRIAIALAQDFADWEPALLAAAARSYLGVEIVHATPDGMPVTSMGGLKVTPDTSYDALDPVDIDALVIPGGLSWEKGTAADLGGLVKRFRDRDRLVAGICAAASALGGTGVLNDVAHTGNALASHKAYPAYRGEAHYRDQPRAVSDGGVVTAAGSAPVSFAVEILKSLGLFGPEAEAELQIFAAEHR | not failed
10 | MGLAASEALQGSEQEINSAFSNQITPVISGDYIVWQDERDGNWDIYMYDMSAGRTETSLFNGPKDEIEPAISGSRVVLADNRRGNYDIYMYDISTKKEVQVTSDKSEQKEPAISEDIIVWTDRRNQNTDIYMYDLTTKEETRITDDKADQSQPAVWGNIIVWKDTRNGNEDIYMYDISAGKESPVVMDSAAQTNPVIEGDYIVWEDRRAGNLDIYMYEISTGKEKPVCTDPSPQKTPAISDGRIVWADGRIKGTNIFIYDIATGQEKTVSTASEYESNPSIDGNRIVWQDKRKGAMDIFMFTEDASETESTAGEKTEAETGSKAPLGIYPVSAGVIAAYLMINSGKKGKRKTLEHHHHHH | failed
11 | MEKADIEAIFARSRFISAMNLEILDIDHAGSRFSVRMPLQDTYERGAPGTKQFHGGALAALIDVVGDFAIGMLVGGGVPTMNLRIDYLRPAVGDYVDGVAVVRKAGKSAAVVDIDILCPAGKLVAIGRGTYVPITGLEHHHHHH | failed
12 | MIFSSPSQKNHPVGGLEEVMAQGTFVQALRKEAALSSTFMKGRSLMLNGAVLSIEDSGSRFSKNVTLEGAVRGSRGDLYKTHVALDMDEHEVIDYDCDCPAAYRYPGMCKHAIATALAYLDASGIEPVEGLRTPVRTFTAAPKQAARPSSAAPAVNPNFPFPAPVPTSPSLMKALSDLSDARMDELAGMRRKLAGTVDPDAPKAVLEPSLVPYYNPLFADRFSWALELRIRCGSVSYVVKDIDGMAAAYVRGGTFSYGKKLTFLHAPEAFDEVSVRLLDLVVATVVYLSDITSSRSASYDFARSGFVAERQLPLSEHDIVYMLDLLRGRTISFEPAWSRGTTTHRSYEVAVELSPVGEDEASAKQPPLLAAKIAPAAGGSYDLRLPADTYCFVAGDAAYLVDTHRARRADAAFAQHAAPFLSRLLPCRTPVHIAAEQVGEFCRMALPVLREYTGLTAPAVLDTVAPEPSFAMAIGVDDGLVTCKITVSYGDWSADLFSLGAPGSPFEERRPGVPPRDEMAEFRVMDTAALYFDFYEGGLAFEERDDESLFHLLTEGLSALSELGEVMLSDRLRQVSVRPAPKLSVRATVKSNLLDVELGASGLSAADLAIYLDSYKRHQTFARLTSGDIIRLDEGARAAFGLAEDLGVDAVDLLDGVSLPASSTLFVDSMLARTPELEADRDAAFRRTVERLDTLGKMDFTVPVSLKATLRGYQVDGYQWLGSLEHLGLGGILADDMGLGKTLQMIAHILARVEAGDAKPTLVVCPASLVYNWTAELERFAPSLDVCAIVGAKAQRRVQIAGADEHNVVITSYDLMRRDIDEYAEQDFARVVLDEAQYIKNPLTQVAHAAKRLPAGVRFALTGTPIENRLSELWSIFDFLMPGLLGSRESFAKRFESPVEHAEGDSAARLQALVSPFVLRRVKEDVVADLPEKIEDTVMAQLTGEQRKLYLANQDRIAQQVQHREVSEFKKDKLKVLAELTKLRQICCDPHLHYEDYKAGSAKLDACMELVHGALDGGHHILLFSQFTGMLDIIGKRLAKEDIGFLKLTGASSKESRAKMVAQFQAGEVPVFLISLKAGGVGLNLTAADVVIHYDPWWNVAAQDQATDRAHRIGQQHTVTVYKLIAKDTIEERIMRMQESKRDLVNSVLGGDGISSALFTREDVLALLGGDGR | failed
13 | MNYKVLAYITAYNDYFALNRCIDGLINQTYKIDYLLIVDNSSRPIPIQKLGNNLSIEVQHHPENIGVAGGLTLGIQYAIHKKFDFIWLFDQDSTPYENALENLIYFYDKYINKSEIGILSCAVQDRETGQINCGFIYKNYRFYQQQIDSRKAVYECDAVITSGTLLNCHAAKEIGLPNESLFMDAVDFDYCMKLRKQDYKIFTVCNAKINHRFGNSKSIQLFNRTKFIYLYSSLRYFYVHRNHTYLETRLAKNCLFFIISTFYRIFKSFRKIFVILLFEDSQRLLKIYACSKGTVDGLLGKLGKTWT | failed
